This series concerns the molecule itself. In words: ITC dilution of a 100 µM stock at 25° C.; self-association of the decamer, no CTC could be determined.

B1: Prx1 from Pyrococcus furiosus (Pfu-Prx) in which the cysteine residues have been mutated into serine residues (enzyme)
chain: MIVIGEKFPEVEVKTTHGVIKLPDHFTKQGKWFMLFSHPADFTPVSTTEFYGLQIRLEKFRELGVEPIGLSVDQVFSHLKWMEWIKEKLGVEIEFPVIADDRGDLAEKLGMIPSGSTITARAVFIVDDKGIIRAIVYYPAEVGRDWDEILRLVKALKISTEKGVALPHKWPNNELIGDKVIVPPASSVEQIKEREEAKAKGEIESYDWWFSYKKLE
notes: not described
On to B1, for which the binding result is listed as “binds”.

The values are drawn from US20240043824A1 (UNIVERSITE DE LORRAINE, published 2024).
